Data reported in patent US20140187491A1 (Bayer, published 2014).
Ends that are not written are not given here.

T1: human LGR7/RXFP1 receptor (human, UniProt Q9HBX9 1-757)
T1 sequence (looked up): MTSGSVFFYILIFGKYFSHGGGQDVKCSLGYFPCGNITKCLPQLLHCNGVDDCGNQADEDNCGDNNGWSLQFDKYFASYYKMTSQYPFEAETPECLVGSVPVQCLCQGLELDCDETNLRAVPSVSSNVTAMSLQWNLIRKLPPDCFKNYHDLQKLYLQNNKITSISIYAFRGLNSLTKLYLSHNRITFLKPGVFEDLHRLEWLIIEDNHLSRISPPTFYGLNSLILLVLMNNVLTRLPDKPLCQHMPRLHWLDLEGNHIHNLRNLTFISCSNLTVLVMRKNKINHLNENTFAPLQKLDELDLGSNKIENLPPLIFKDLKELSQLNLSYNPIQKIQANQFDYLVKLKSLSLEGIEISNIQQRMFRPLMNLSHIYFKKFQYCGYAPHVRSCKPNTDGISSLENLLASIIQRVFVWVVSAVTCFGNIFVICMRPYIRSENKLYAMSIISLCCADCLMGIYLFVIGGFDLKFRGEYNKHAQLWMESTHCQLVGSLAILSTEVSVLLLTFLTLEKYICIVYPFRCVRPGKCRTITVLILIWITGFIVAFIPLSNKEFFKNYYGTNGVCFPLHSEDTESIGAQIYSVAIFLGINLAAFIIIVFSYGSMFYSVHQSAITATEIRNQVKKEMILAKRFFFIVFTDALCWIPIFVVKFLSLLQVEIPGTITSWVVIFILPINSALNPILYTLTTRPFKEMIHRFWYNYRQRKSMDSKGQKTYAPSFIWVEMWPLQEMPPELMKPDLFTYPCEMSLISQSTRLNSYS

B1: scR9 (ligand)
chain: EQKLISEEDLQLYSALANKCCHVGCTKRSLARFCGGGSGGGSGGGSGSWMEEVIKLCGRELVRAQIAICGMSTWS
B2: scR11 (ligand)
chain: QLYSALANKCCHVGCTKRSLARFCGGGSGCGGSGSWMEEVIKLCGRELVRAQIAICGMSTWS
B3: scR12 (ligand)
chain: QLYSALANKCCHVGCTKRSLARFCGGGSGKGGSGSWMEEVIKLCGRELVRAQIAICGMSTWS
B4: scR3 (ligand)
chain: EQKLISEEDLQLYSALANKCCHVGCTKRSLARFCGGGSGGGSWMEEVIKLCGRELVRAQIAICGMSTWSYPYDVPDYAHHHHHH
B5: human Relaxin 2 (ligand)
chain 1: QLYSALANKCCHVGCTKRSLARFC
chain 2: SWMEEVIKLCGRELVRAQIAICGMSTWS
B6: scR17 (ligand)
chain: EQKLISEEDLDVLAGLSSSCCKWGCSKSEISSLCGGGSGGGSGSWMEEVIKLCGRELVRAQIAICGMSTWS
B7: scR8 (ligand)
chain: EQKLISEEDLQLYSALANKCCHVGCTKRSLARFCGGGSGGGSGGGSSWMEEVIKLCGRELVRAQIAICGMSTWS
B8: scR4 (ligand)
chain: EQKLISEEDLQLYSALANKCCHVGCTKRSLARFCGGGSGGGSGSWMEEVIKLCGRELVRAQIAICGMSTWSYPYDVPDYAHHHHHH
B9: scR14 (ligand)
chain: DVLAGLSSSCCKWGCSKSEISSLCGGGSGGGSGRAAPYGVRLCGREFIRAVIFTCGGSRW
modifications: ends and bridges not checked; cysteine pairing not given here
B10: scR7 (ligand)
chain: EQKLISEEDLQLYSALANKCCHVGCTKRSLARFCGGGSGGSWMEEVIKLCGRELVRAQIAICGMSTWS
B11: scR15 (ligand)
chain: EQKLISEEDLDVLAGLSSSCCKWGCSKSEISSLCGGGSGGGSGRAAPYGVRLCGREFIRAVIFTCGGSRW
B12: scR5 (ligand)
chain: EQKLISEEDLQLYSALANKCCHVGCTKRSLARFCGGGSGGGSGGGSWMEEVIKLCGRELVRAQIAICGMSTWSYPYDVPDYAHHHHHH
B13: human Relaxin 3 (ligand)
chain 1: DVLAGLSSSCCKWGCSKSEISSLC
chain 2: RAAPYGVRLCGREFIRAVIFTCGGSRW
B14: scR10 (ligand)
chain: EQKLISEEDLQLYSALANKCCHVGCTKRSLARFCGGGSGGGSGGGSGGSWMEEVIKLCGRELVRAQIAICGMSTWS
B15: scR-Fc 8 (Fc fusion)
chain: QLYSALANKCCHVGCTKRSLARFCGGGSGGGSGSWMEEVIKLCGRELVRAQIAICGMSTWSGGSPTCPTCHKCPVPELLGGPSVFIFPPKPKDILLISQNAKVTCVVVDVSEEEPDVQFSWFVNNVEVHTAQTQPREEQYNSTFRVVSALPIQHQDWMSGKEFKCKVNNKALPSPIEKTISKPKGLVRKPQVYVMGPPTEQLTEQTVSLTCLTSGFLPNDIGVEWTSNGHIEKNYKNTEPVMDSDGSFFMYSKLNVERSRWDSRAPFVCSVVHEGLHNHHVEKSISRPPGKHHHHHH
B16: scR-Fc 10 (Fc fusion)
chain: QLYSALANKCCHVGCTKRSLARFCGGGSGGGSGSWMEEVIKLCGRELVRAQIAICGMSTWSGGSGGSGGSPTCPTCHKCPVPELLGGPSVFIFPPKPKDILLISQNAKVTCVVVDVSEEEPDVQFSWFVNNVEVHTAQTQPREEQYNSTFRVVSALPIQHQDWMSGKEFKCKVNNKALPSPIEKTISKPKGLVRKPQVYVMGPPTEQLTEQTVSLTCLTSGFLPNDIGVEWTSNGHIEKNYKNTEPVMDSDGSFFMYSKLNVERSRWDSRAPFVCSVVHEGLHNHHVEKSISRPPGKHHHHHH
B17: scR-Fc 13 (Fc fusion)
chain: HHHHHHPTCPTCHKCPVPELLGGPSVFIFPPKPKDILLISQNAKVTCVVVDVSEEEPDVQFSWFVNNVEVHTAQTQPREEQYNSTFRVVSALPIQHQDWMSGKEFKCKVNNKALPSPIEKTISKPKGLVRKPQVYVMGPPTEQLTEQTVSLTCLTSGFLPNDIGVEWTSNGHIEKNYKNTEPVMDSDGSFFMYSKLNVERSRWDSRAPFVCSVVHEGLHNHHVEKSISRPPGKGGSGGSGGSPQLYSALANKCCHVGCTKRSLARFCGGGSGGGSGSWMEEVIKLCGRELVRAQIAICGMSTWS
B18: scR-Fc 9 (Fc fusion)
chain: QLYSALANKCCHVGCTKRSLARFCGGGSGGGSGSWMEEVIKLCGRELVRAQIAICGMSTWSGGSGGSPTCPTCHKCPVPELLGGPSVFIFPPKPKDILLISQNAKVTCVVVDVSEEEPDVQFSWFVNNVEVHTAQTQPREEQYNSTFRVVSALPIQHQDWMSGKEFKCKVNNKALPSPIEKTISKPKGLVRKPQVYVMGPPTEQLTEQTVSLTCLTSGFLPNDIGVEWTSNGHIEKNYKNTEPVMDSDGSFFMYSKLNVERSRWDSRAPFVCSVVHEGLHNHHVEKSISRPPGKHHHHHH
B19: scR-Fc 11 (Fc fusion)
chain: HHHHHHPTCPTCHKCPVPELLGGPSVFIFPPKPKDILLISQNAKVTCVVVDVSEEEPDVQFSWFVNNVEVHTAQTQPREEQYNSTFRVVSALPIQHQDWMSGKEFKCKVNNKALPSPIEKTISKPKGLVRKPQVYVMGPPTEQLTEQTVSLTCLTSGFLPNDIGVEWTSNGHIEKNYKNTEPVMDSDGSFFMYSKLNVERSRWDSRAPFVCSVVHEGLHNHHVEKSISRPPGKGGSPQLYSALANKCCHVGCTKRSLARFCGGGSGGGSGSWMEEVIKLCGRELVRAQIAICGMSTWS
B20: scR-Var2 (ligand)
chain: GCGSGGQLYSALANKCCHVGCTKRSLARFCGGGSGGGSGSWMEEVIKLCGRELVRAQIAICGMSTWS
B21: scR-Fc 17 (Fc fusion)
chain: QLYSALANKCCHVGCTKRSLARFCGGGSGGGSGSWMEEVIKLCGRELVRAQIAICGMSTWSGSGSGSPTCPTCHKCPVPELLGGPSVFIFPPKPKDILLISQNAKVTCVVVDVSEEEPDVQFSWFVNNVEVHTAQTQPREEQYNSTFRVVSALPIQHQDWMSGKEFKCKVNNKALPSPIEKTISKPKGLVRKPQVYVMGPPTEQLTEQTVSLTCLTSGFLPNDIGVEWTSNGHIEKNYKNTEPVMDSDGSFFMYSKLNVERSRWDSRAPFVCSVVHEGLHNHHVEKSISRPPGK
B22: scR-Fc 12 (Fc fusion)
chain: HHHHHHPTCPTCHKCPVPELLGGPSVFIFPPKPKDILLISQNAKVTCVVVDVSEEEPDVQFSWFVNNVEVHTAQTQPREEQYNSTFRVVSALPIQHQDWMSGKEFKCKVNNKALPSPIEKTISKPKGLVRKPQVYVMGPPTEQLTEQTVSLTCLTSGFLPNDIGVEWTSNGHIEKNYKNTEPVMDSDGSFFMYSKLNVERSRWDSRAPFVCSVVHEGLHNHHVEKSISRPPGKGGSGGSPQLYSALANKCCHVGCTKRSLARFCGGGSGGGSGSWMEEVIKLCGRELVRAQIAICGMSTWS
B23: scR-Var1 (ligand)
chain: QLYSALANKCCHVGCTKRSLARFCGGGSGGGSGSWMEEVIKLCGRELVRAQIAICGMSTWSGGSGCG

target: T1, human LGR7/RXFP1 receptor; assay: cell-based or functional assay

Question: With B1 as the binder, how does the “EC50 (M), CRE-luciferase reporter in CHO-CRE-LGR7 cells” value (“EC50 (M), CRE-luciferase reporter” below) read?
Answer: Its value is 1.1e-07 M.

Question: For B2, which “EC50 (M), CRE-luciferase reporter” value is on record?
Answer: Its value is 2.5e-08 M.

Question: With B3 as the binder, how does the “EC50 (M), CRE-luciferase reporter” value read?
Answer: Its value is 3.6e-08 M.

Question: Which “EC50 (M), CRE-luciferase reporter” value does the source give for B4 here?
Answer: Its value is 7.7e-11 M.

Question: With B5 as the binder, how does the “EC50 (M), CRE-luciferase reporter” value read?
Answer: Its value is 2.6e-11 M.

Question: Which “EC50 (M), CRE-luciferase reporter” value does the source give for B6 here?
Answer: Its value is 1.3e-08 M.

Question: Which “EC50 (M), CRE-luciferase reporter” value does the source give for B7 here?
Answer: Its value is 2.4e-08 M.

Question: Which “EC50 (M), CRE-luciferase reporter” value does the source give for B8 here?
Answer: Its value is 3.4e-11 M.

Question: Which “EC50 (M), CRE-luciferase reporter” value does the source give for B9 here?
Answer: The value was 5.9e-10 M.

Question: With B10 as the binder, how does the “EC50 (M), CRE-luciferase reporter” value read?
Answer: The value was 5.3e-08 M.

Question: B11 was tested. Which “EC50 (M), CRE-luciferase reporter” value did it give?
Answer: Its value is 6.2e-10 M.

Question: How did the “EC50 (M), CRE-luciferase reporter” value turn out when B12 was run?
Answer: Its value is 3.7e-11 M.

Question: B13 was tested. Which “EC50 (M), CRE-luciferase reporter” value did it give?
Answer: Its value is 2.3e-09 M.

Question: B14 was tested. Which “EC50 (M), CRE-luciferase reporter” value did it give?
Answer: Its value is 4.4e-08 M.

target: T1, human LGR7/RXFP1 receptor; assay: cell-based or functional assay; remark: another data set of the same source

Question: B15 was tested. Which “EC50 (M), CRE-luciferase reporter” value did it give?
Answer: Its value is 7.2e-09 M.

Question: How did the “EC50 (M), CRE-luciferase reporter” value turn out when B16 was run?
Answer: Its value is 4.8e-09 M.

Question: With B5 as the binder, how does the “EC50 (M), CRE-luciferase reporter” value read?
Answer: The value was 3.5e-11 M.

Question: How did the “EC50 (M), CRE-luciferase reporter” value turn out when B17 was run?
Answer: The value was 8.9e-10 M.

Question: How did the “EC50 (M), CRE-luciferase reporter” value turn out when B18 was run?
Answer: Its value is 9.9e-09 M.

Question: With B19 as the binder, how does the “EC50 (M), CRE-luciferase reporter” value read?
Answer: Its value is 1.2e-09 M.

Question: For B20, which “EC50 (M), CRE-luciferase reporter” value is on record?
Answer: The value was 4.2e-08 M.

Question: With B21 as the binder, how does the “EC50 (M), CRE-luciferase reporter” value read?
Answer: Its value is 2.5e-09 M.

Question: How did the “EC50 (M), CRE-luciferase reporter” value turn out when B22 was run?
Answer: The value was 9.5e-10 M.

Question: Which “EC50 (M), CRE-luciferase reporter” value does the source give for B23 here?
Answer: Its value is 1.1e-07 M.
